Data published in patent publication US20220112288A1 (published 2022).
Numbering of substitutions follows the chain as printed.

B1: 75110_14P08A (antibody, V domains shown)
VH: QVQLQESGPGLVKSSETLSLTCTDSGDSIRSYYWNWIRQPAGKGLEWIGRIYASGSTNYNPSLKSRVIMSADTSKNRFSLKLSSVTAADTAVYYCARDGGVGDSLDYWGQGTLVTVSS
VL: DIVMTQTPLSLPVTPGEPASISCRSSQSLLDSDDGNTYLDWYLQKPGQSPQLLIYTLSYRASGVPDRFSGSGSGTDFTLKISRVEAEDVGVYYCMQRIEFPFTFGPGTKVDIK
notes: Tested as non-clonal AlivaMab Mouse Kappa hybridoma supernatant, captured by anti-mouse IgG Fc sensor
B2: 75110_05E13A (antibody, V domains shown)
VH: EVQLVESGGDLVKPGGSLRLSCAASGFSFSNAWMSWVRQAPGKGLEWVGRVESKTDGGTTDYAAPVKDRFTISRDDSKYTLYLQMNSLKTEDSAVYYCTIGGGFGLELYGFFDYWGQGTLVTVSS
VL: DIQMTQSPSTLSASVGDRVTITCRASQSISSWLAWYQQKPGKAPMLLIYKASSLESGVPSRFSGSGSGTEFTLTISSLQPDDFATYYCLQYNSYYTFGQGTKLEIK
notes: Tested as antibody purified from AlivaMab Mouse hybridoma supernatant (captured by anti-mouse IgG Fc)
B3: 75110_03B16A (antibody, V domains shown)
VH: EVQLVESGGGLVQPGGSLRLSCAASGFTFSSYWMSWVRQAPGKGLEWVANINEDGSEKNYVDSVKGRFTISRDNAKNSLCLQLNSLRAEDTAVYHCAREGGQWLALDYWGQGTLVTVSS
VL: DIQMTQSPSSVSASVGDRVNITCRASQGIRSWLAWYQQKPGKTPKLLICGASSLQSGVPSRFSGSGSGTDFTLTISSLQPEDFATYYCQQANSFPWTFGQGTTVEIK
notes: as for B2
B4: 75110_04B08A (antibody, V domains shown)
VH: QVQLVESGGGVVQPGRSLRLSCTASGFNFINYGIHWVRQAPGKGLEWVTIIWYDGSKKYYADSVKGRFAISRDNSKNTLYLQMNSLRAEDTAVYYCAREDDWNDGLAYWGQGTLVTVSS
VL: AIQMTQSPSSLSASVGDRVTITCRASQDIRNDLGWYQQKPGKAPNLLIYAASNLQSGVPSRFSGSGSGTDFTLTISSLQPEDFATYYCLQDSNYPRTFGQGTKVEIK
notes: as for B2
B5: 75110_04G16A (antibody, V domains shown)
VH: QVQLQESGPGLVKPSQTLSLTCTVSGDSISSGYYYWSWIRQHPGKGLEWIGYISYSGSTYYNPSLKSRLTISVNTSKNQFSLKLSSLTAADTAVYYCARDRPSNFDAFDIWGQGTMVTVSS
VL: EIVLTQSPGTLSLSPGERATLSCRASQSVGSTYLAWYQQKPGQAPRLLIYGAFSRATGIPDRFSGSGSGTDFTLTISRLEPEDFAVYYCQQYGSSPLTFGPGTKVDIK
notes: as for B2
B6: 75110_03I08A (antibody, V domains shown)
VH: QVQLQESGPGLVKPSETLSLTCTVSGGSISSYYWSWIRQPPGKGLEWIGYIYYSGSTNYNPSLKSRVTISVDTSKNQFSLKLSSVTAADTAVYYCAREGEQWFYGLDVWGQGTTVTVSS
VL: EIVLTQSPGTLSLSPGERATLSCRASQSVSSTYLAWYQQKPGQAPRLLIYGSSSRATGIPDRFSGSGSGTDFTLTISRLEPEDFAVYYCQQYGNSFPITFGQGTRLEIK
notes: as for B2
B7: 75110_02E08A (antibody, V domains shown)
VH: QVQLQESGPGLVKPSETLSLTCTVSGGSISTYYWTWIRQPAGKGLEWIGRVYTSGDTNYNPSLKSRVAMSLDTSKNQFSLKLSSVTAADTAVYYCARDSGALYSWNYGDAFDIWGQGTMVTVSS
VL: DIQMTQSPSAMSASVGDRVTITCRASQDISNYLAWFQQKPGKVPKRLIYAASSLQSGVPSRFSGSGSGTEFTLTISSLQPEDFATYYCLQHNSYPRTFGQGTKVEIK
notes: as for B2
B8: 75110_02K11A (antibody, V domains shown)
VH: B5 VH with D27G, Y33F, S37T, S58N, L65F, N74D, N78S, L87V
VL: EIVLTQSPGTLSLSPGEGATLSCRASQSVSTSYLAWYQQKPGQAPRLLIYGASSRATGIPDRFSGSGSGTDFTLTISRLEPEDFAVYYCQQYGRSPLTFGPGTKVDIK
notes: as for B2
B9: 75110_05E05A (antibody, V domains shown)
VH: QVQLQESGPGLVKPSETLSLTCTVSGGSIGSYYWSWIRQPAGKGLEWIGRIYTSGSTNYNPSLKSRVTMSFDTSKNQFSLKLNSVTAADTAVYYCATDGGVGDSLDYWGQGTLVTVSS
VL: B1 VL with R97H
notes: as for B2
B10: 75110_02E22A (antibody, V domains shown)
VH: QVQLQESGPGLVKPSETLSLTCTVSGGSISSFYWSWIRQPAGKGLEWIGRIYTSGSTNYNPSLKSRVTMSVDTSKNQFSLKLSSVTAADTAVYYCARELEKRNYYGMDVWGQGTTVTVSS
VL: DIQMTQSPSSLSASVGDRVTITCQASHDISNYLNWYQQKPGKAPKLLIFDASTLETGVPSRFSGSGSGTYFTFTIRSLQPEDIATYYCQQYDSLPLTFGGGTKVEIK
notes: as for B2
B11: 75110_04H17A (antibody, V domains shown)
VH: QVQLQESGPGLVKPSETLSLTCTVSGGSISTYYWSWIRQSAGKGLEWIGRIYTSERPNYNPSLKSRVTMSVDTSKNQFSLKLNSVSAADTAVYYCARELERPYYYGMDVWGQGTTVTVSS
VL: B10 VL with I2V, D17G, H27Q, F49Y, D50Y, T53N, Y70D, R76S, I83F, S93N
notes: as for B2
B12: 75110_04D20A (antibody, V domains shown)
VH: B10 VH with G26N, S31D, F32Y, V67I, K81E, K101R, R102Y, N103Y, Y104F, M107V
VL: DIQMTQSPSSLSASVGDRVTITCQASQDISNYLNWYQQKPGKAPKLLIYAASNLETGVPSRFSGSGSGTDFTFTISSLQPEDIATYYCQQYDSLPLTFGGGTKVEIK
notes: as for B2
B13: 75110_02I16A (antibody, V domains shown)
VH: QVQLQQWGAGLLKPSETLSLTCDVYGGSFSGYYWTWIRQPPGKGLEWIGEINHSGTTNSNPSLKSRVTISVDTSKSQFSLRLSSVTAADTAVYFCTRELNWFDPWGQGTLVTVSS
VL: DIQMTQSPSSVSASVGDRVTITCRASQDIANWLAWYQQKPGKAPQLLIYAASSLLGGVPSRFSGSGSGADFTLTISSLHPEDFATYYCQQANSFPYTFGQGTKLEIK
notes: as for B2
B14: 75110_05B13A (antibody, V domains shown)
VH: QVLLEQWGAGLLKPSETLSLTCAVYGGSFSGYYWTWIRQPPGKGLEWIGEINHRGSTNYNPSLKSRVTISIDTSKNQFSLKVKSVTAADTAMYYCTRPDSNWFDPWGQGTLVTVSS
VL: B3 VL with N20T, G28D, R30S, S31N, T43A, C49F, G50A, W96L, Q100G, T103K
notes: as for B2
B15: 75110_04P08A (antibody, V domains shown)
VH: QVQLQQWGAGLLKPSETLSLTCAVYGGSLSGYYWSWIRQSPGKGLEWIGEINQSGSTNYNPSLKSRVTISVDTSKDQFSLRLTSVTAADTAVYYCTRVLNWFDPWGRGTLVTVSS
VL: B13 VL with I21L, A30S, Q45K, L55Q, G56S, A69T, H79Q, P80T
notes: as for B2
B16: 75110_01L08A (antibody, V domains shown)
VH: QVQLQESGPGLVKPSETLSLTCTVSGGSISHYYWSWIRQPPGKGLEWIGYIHYSGTTNYNPSLKSRVTISVDTSKNQLSLKLRSVTAADTAVYYCARDQGFSSGGMDVWGQGTTVTVSS
VL: not shown
notes: as for B2
B17: 75110_03I23A (antibody, V domains shown)
VH: QVQLQESGPGLVKPSETLSLTCTASGGSITSYYWNWIRQPAGKGLEWIGRIYTSGSTNYNPSLKSRVTMSVDTSKNQFSLKLSSVTAADTAVYYCARDPGYSDAFNIWGQGTMVTVSS
VL: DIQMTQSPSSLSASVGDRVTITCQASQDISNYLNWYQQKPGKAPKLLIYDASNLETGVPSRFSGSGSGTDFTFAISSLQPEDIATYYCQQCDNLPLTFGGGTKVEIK
notes: Tested as clonal hybridoma supernatant of an AlivaMab Mouse Kappa antibody (human variable regions, kappa; detected with anti-mouse Fc)
B18: 75110_03I08A (antibody, V domains shown)
VH: B6 VH
VL: B6 VL
notes: as for B17
B19: 75110_10O16A (antibody, V domains shown)
VH: EVQLVESGGGLVQPGGSLRLSCAASGFTFSNSDMHWVRQATGKGLEWVSTIGTAGDTYYPGSVKGRFTISRENAKNSLYLQMNSLRAGDTAVYYCARGGLYYYGMDVWGQGTTVTVSS
VL: B5 VL with I2N, G30S, T32S, F53S, Q90H, Y92F, L97F
notes: Non-clonal AlivaMab Mouse Kappa hybridoma supernatant, captured by anti-mouse IgG Fc (human V regions, mouse Fc); also called 75110_10016A

Target: T1, Recombinant human CD4 (R&D Systems, Cat. 10327-CD) (human, UniProt P01730 26-390, limits assumed)
T1 construct: Bought reagent; also called huCD4
Assay: BLI Octet, non-clonal supernatant on AMC sensor, 100 nM human CD4, 1:1 local fit;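 also: Single-concentration kinetics per supernatant, with the 1:1 model fitted across both the association and dissociation phases of the sensorgram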

| Binder | Kd | koff | kon |
| --- | --- | --- | --- |
| B1 | 7.47 nM | 0.00134 s⁻¹ | 179000 M⁻¹ s⁻¹ |

Target: T2, Rhesus macaque CD4-HIS (Acro Biosystems, Cat. CD4-C52H7) (rhesus macaque, UniProt P16003 26-390)
T2 construct: Bought reagent; also called Rhesus CD4; rhesus CD4-HIS; not shown: His tag
Assay: BLI Octet, mAb on anti-mouse Fc sensor, rhesus CD4-HIS 25-100 nM, 1:1 global fit;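 also: purified antibodies captured at 10 µg/mL, rhesus CD4 analyte run as a three-concentration serial dilution, irrelevant antibody as reference control, one kinetic constant set per antibody from global fitting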

T2 sequence (P16003 26-390 limits assumed): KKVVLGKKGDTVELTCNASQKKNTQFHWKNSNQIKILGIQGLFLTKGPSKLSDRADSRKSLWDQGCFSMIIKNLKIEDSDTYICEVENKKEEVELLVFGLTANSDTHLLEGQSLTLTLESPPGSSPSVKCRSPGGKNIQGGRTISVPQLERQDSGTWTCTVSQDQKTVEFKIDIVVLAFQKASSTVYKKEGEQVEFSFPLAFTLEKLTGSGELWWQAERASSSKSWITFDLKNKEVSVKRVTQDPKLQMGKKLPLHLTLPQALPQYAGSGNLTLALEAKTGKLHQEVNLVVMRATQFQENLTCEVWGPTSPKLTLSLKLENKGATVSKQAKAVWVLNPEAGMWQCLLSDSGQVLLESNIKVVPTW

| Binder | Kd | Response | koff | kon |
| --- | --- | --- | --- | --- |
| B2 | 6.7 nM | 0.03 | 0.0079 s⁻¹ | 1.2e+06 M⁻¹ s⁻¹ |
| B3 | 23 nM | 0.19 | 0.004 s⁻¹ | 170000 M⁻¹ s⁻¹ |
| B4 | 18 nM | 0.26 | 0.0048 s⁻¹ | 270000 M⁻¹ s⁻¹ |
| B5 | 2.4 nM | 0.27 | 0.00022 s⁻¹ | 92000 M⁻¹ s⁻¹ |
| B6 | 6.1 nM | 0.04 | 0.00061 s⁻¹ | 100000 M⁻¹ s⁻¹ |
| B7 | 12 nM | 0.04 | 0.00091 s⁻¹ | 79000 M⁻¹ s⁻¹ |
| B8 | 26 nM | 0.13 | 0.0015 s⁻¹ | 59000 M⁻¹ s⁻¹ |
| B9 | 2.3 nM | 0.06 | 4.9e-05 s⁻¹ | 21000 M⁻¹ s⁻¹ |
| B10 | 51 nM | 0.15 | 0.0044 s⁻¹ | 87000 M⁻¹ s⁻¹ |
| B11 | 1.7 nM | 0.18 | 0.0002 s⁻¹ | 120000 M⁻¹ s⁻¹ |
| B12 | 12 nM | 0.13 | 0.0017 s⁻¹ | 140000 M⁻¹ s⁻¹ |
| B13 | 37 nM | 0.14 | 0.0092 s⁻¹ | 250000 M⁻¹ s⁻¹ |
| B14 | 4.7 nM | 0.14 | 0.002 s⁻¹ | 420000 M⁻¹ s⁻¹ |
| B15 | 60 nM | 0.12 | 0.0091 s⁻¹ | 150000 M⁻¹ s⁻¹ |
| B16 | 8.1 nM | 0.06 | 0.0011 s⁻¹ | 140000 M⁻¹ s⁻¹ |

Target: T3, human CD4 on human PBMCs (human, UniProt P01730 26-458)
T3 construct: whole, on cells; the CD4-positive gate was set with the control antibodies OKT4 and RPA-T4; also called hCD4
Assay: FACS, clonal hybridoma supernatant on PBMCs

| Binder | % CD4 Stain | gMFI of CD4+ |
| --- | --- | --- |
| B17 | 26.2% | 67900 gMFI |
| B18 | 17.8% | 26100 gMFI |

Target: T4, Recombinant human CD4 (R&D Systems, Cat. 10327-CD) (human, UniProt P01730 26-390, limits assumed)
T4 construct: Bought soluble recombinant protein used as analyte at 100 nM; also called huCD4
Assay: BLI (Octet Red384), non-clonal supernatant on AMC sensor, 100 nM human CD4, 1:1 local fit;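 also: hybridoma antibodies captured from supernatant, single CD4 concentration as analyte, association and dissociation phases fitted together, giving single-point kinetic estimates per supernatant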

| Binder | Kd | koff | kon |
| --- | --- | --- | --- |
| B19 | < 0.001 nM | < 1e-07 s⁻¹ | 64800 M⁻¹ s⁻¹ |
